This is an account of results in the Human Domainome abundance scans (Beltran et al. 2025).

The labels stand for the following.
B1: FERM and PDZ domain-containing protein 4, residues 75 to 154; numbered along this chain, Q14CM0 (parent)
chain: APRKVEMRRDPVLGFGFVAGSEKPVVVRSVTPGGPSEGKLIPGDQIVMINDEPVSAAPRERVIDLVRSCKESILLTVIQP

± gives the uncertainty stated by the source.

Variants of B1 are the subject of this data set. Put plainly: abundance fitness (aPCA) (normalised: wild type 0, dead -1); higher = more abundant; growth selection in yeast, the domain comes from the species named. The following applies: Homo sapiens.
On to R67C, for which the abundance fitness was -0.055 ± 0.029.
Next, R67M: -0.064 ± 0.025.
Then R67D, with -0.018 ± 0.032.
Then R67I, with -0.159 ± 0.04; and R67N, with 0.017 ± 0.033; and R67L, with -0.105 ± 0.022.
Consider R67Q, for which the abundance fitness turned out to be 0.001 ± 0.028.
Take R67S: the abundance fitness is -0.013 ± 0.023.
For R67F, the abundance fitness was -0.095 ± 0.036.
Next, R67P: -0.808 ± 0.044.
For R67A, the abundance fitness was -0.01 ± 0.022.
Then R67Y, with -0.06 ± 0.036; and R67E, with 0.005 ± 0.024.
Next, R67G: -0.038 ± 0.019.
Then I78K, with 0.036 ± 0.027.
With I78Q, the abundance fitness was 0.025 ± 0.024.
Next, I78R: 0.005 ± 0.019; I78P: -0.569 ± 0.032.
Then I78T, with 0.037 ± 0.024; and I78Y, with -0.053 ± 0.033; and I78H, with -0.015 ± 0.036.
Then I78L, with -0.024 ± 0.02; and I78S, with 0.01 ± 0.022.
I78E: the abundance fitness turned out to be 0.044 ± 0.023.
Then I78A, with 0.028 ± 0.021.
Next, I78M: 0.022 ± 0.025; I78W: -0.063 ± 0.022.
Then I78G, with -0.079 ± 0.019.
As to I78F, the abundance fitness is -0.042 ± 0.031.
Take I78N: the abundance fitness was -0.049 ± 0.033.
For I78C, the abundance fitness was -0.029 ± 0.027.
Then L65R, with -0.093 ± 0.02; and L65Q, with -0.094 ± 0.03.
Then L65K, with -0.022 ± 0.029; and L65N, with -0.349 ± 0.043.
Next, L65F: -0.109 ± 0.041.
Turning to L65W, the abundance fitness is -0.244 ± 0.025.
With L65M, the abundance fitness is -0.002 ± 0.031.
Next, L65E: -0.249 ± 0.028; L65I: -0.052 ± 0.041.
L65P: the abundance fitness was -0.841 ± 0.055.
In the case of L65A, the abundance fitness was -0.056 ± 0.024.
As for L65D, the abundance fitness is -0.462 ± 0.04.
Next, L65V: -0.105 ± 0.023; L65G: -0.377 ± 0.022; L65T: -0.114 ± 0.028.
Next, L65Y: -0.076 ± 0.039; L65H: -0.205 ± 0.047.
As for L65S, the abundance fitness is -0.178 ± 0.024.
Next, L65C: -0.158 ± 0.034; E71P: -0.219 ± 0.033.
Next, E71K: 0 ± 0.034; E71R: -0.059 ± 0.025.
In the case of E71N, the abundance fitness is -0.106 ± 0.036.
E71T: the abundance fitness is -0.052 ± 0.028.
In the case of E71M, the abundance fitness is -0.198 ± 0.034.
For E71Q, the abundance fitness is -0.038 ± 0.031.
Next, E71Y: -0.231 ± 0.035.
Then E71C, with -0.149 ± 0.038; and E71D, with 0 ± 0.036.
Next, E71W: -0.215 ± 0.035.
Take E71S: the abundance fitness is -0.055 ± 0.026.
Next, E71A: -0.095 ± 0.029; E71I: -0.261 ± 0.037; E71G: -0.041 ± 0.03.
Then E71L, with -0.232 ± 0.026.
Next, E71H: -0.081 ± 0.035; E71V: -0.164 ± 0.029; S68C: -0.082 ± 0.032.
With S68D, the abundance fitness is -0.042 ± 0.032.
Then S68L, with -0.092 ± 0.022.
Next, S68Y: -0.089 ± 0.037; S68V: -0.17 ± 0.022.
Consider S68M, for which the abundance fitness was -0.071 ± 0.028.
Then S68I, with -0.214 ± 0.041; and S68A, with -0.033 ± 0.023.
Next, S68F: -0.099 ± 0.037; S68R: -0.048 ± 0.02.
Next, S68T: -0.043 ± 0.026; S68E: -0.007 ± 0.025.
As for S68Q, the abundance fitness is -0.001 ± 0.026.
Next, S68K: -0.043 ± 0.03; S68W: -0.21 ± 0.025.
Next, S68P: -0.578 ± 0.033; V66N: -0.733 ± 0.066; V66H: -0.686 ± 0.056.
Next, V66P: -0.881 ± 0.048; V66E: -0.427 ± 0.029.
For V66Q, the abundance fitness was -0.451 ± 0.035.
For the variant V66C, the abundance fitness is -0.08 ± 0.028.
Consider V66F, for which the abundance fitness is -0.056 ± 0.033.
In the case of V66M, the abundance fitness was -0.004 ± 0.029.
Then V66G, with -0.73 ± 0.027; and V66T, with -0.18 ± 0.026.
Next, V66K: -0.692 ± 0.043; V66W: -0.475 ± 0.029.
Next, V66R: -0.818 ± 0.028; V66Y: -0.382 ± 0.041.
As for V66L, the abundance fitness worked out at 0.022 ± 0.022.
Next, V66I: -0.009 ± 0.035; V66A: -0.219 ± 0.024.
Next, V66D: -0.681 ± 0.048.
As to V66S, the abundance fitness is -0.569 ± 0.028.
Then T76H, with -0.05 ± 0.062.
On to T76S, for which the abundance fitness is -0.047 ± 0.032.
Next, T76I: -0.156 ± 0.052.
Next, T76M: -0.154 ± 0.04.
As to T76D, the abundance fitness was -0.073 ± 0.055.
Then T76E, with -0.025 ± 0.04; and T76N, with 0.002 ± 0.074; and T76P, with -0.639 ± 0.081.
Next, T76W: -0.18 ± 0.033; T76K: -0.036 ± 0.04.
For T76Y, the abundance fitness was -0.005 ± 0.059.
As for T76R, the abundance fitness is -0.058 ± 0.029.
With T76C, the abundance fitness was -0.088 ± 0.047.
T76V: the abundance fitness is -0.133 ± 0.031.
Next, T76A: -0.132 ± 0.033; T76Q: -0.095 ± 0.039.
Then T76L, with -0.163 ± 0.034.
Then V62Y, with -0.248 ± 0.03; and V62W, with -0.4 ± 0.034.
Take K70I: the abundance fitness was -0.311 ± 0.033.
Next, K70F: -0.256 ± 0.034; K70L: -0.306 ± 0.024; K70P: -0.052 ± 0.027.
In the case of K70M, the abundance fitness is -0.17 ± 0.029.
Next, K70Q: -0.078 ± 0.031.
Then K70A, with -0.1 ± 0.027; and K70D, with -0.055 ± 0.038; and K70E, with -0.061 ± 0.033.
Next, K70Y: -0.153 ± 0.029; K70H: -0.096 ± 0.032.
As for K70R, the abundance fitness is -0.081 ± 0.024.
Next, K70S: -0.054 ± 0.024.
As to K70T, the abundance fitness was -0.098 ± 0.026.
As for K70W, the abundance fitness is -0.323 ± 0.034.
Next, K70N: -0.076 ± 0.03.
Next, K70G: -0.093 ± 0.026; K70C: -0.115 ± 0.033.
Next, K70V: -0.168 ± 0.026; Q79G: 0.03 ± 0.019; Q79S: 0.022 ± 0.022.
On to Q79L, for which the abundance fitness is -0.165 ± 0.022.
With Q79H, the abundance fitness was -0.027 ± 0.032.
Then Q79I, with -0.425 ± 0.039; and Q79N, with -0.045 ± 0.033; and Q79E, with -0.017 ± 0.024.
For the variant Q79K, the abundance fitness is -0.029 ± 0.027.
Next, Q79P: -0.019 ± 0.03; Q79Y: -0.09 ± 0.033; Q79F: -0.262 ± 0.034.
Regarding Q79W, the abundance fitness is -0.233 ± 0.023.
As for Q79A, the abundance fitness stood at 0.035 ± 0.022.
Then Q79C, with 0.012 ± 0.028.
Next, Q79V: -0.236 ± 0.021; Q79T: 0.028 ± 0.024; Q79D: -0.002 ± 0.028.
Next, Q79R: 0.074 ± 0.018.
